Laboratory results reported in publication PMC6144793 (Nucleic Acids Research, 2018).

Biological target: the molecule itself
Assay: SEC-MALS

B1: His6-tagged Hvo_0019 (enzyme, Haloferax volcanii)
chain: MSVRDEFDAWAADGRDKGMEDRHWHTAKHALARMPVEEGDTVVDLGTGSGYALRALRDTKGIGRGFGLDGSPEMVQNARAYTDTDDLSFLVGDFDDLPFDDDSVDHVWSMEAFYYAADPHHTLEEIARILKPGGTFYCAVNYYEENVHSHEWQEHISIDMTRWSHAEYREAFRDAGLHVAEQDSIADLDIDIPAATEFPTDDWETREAMVERYRTFGTLLTVGVAP
B1: binds.
